Earlier results in US20230107428A1 (priority 2021, published 2023).

T1: interleukin-6 receptor (Homo sapiens, UniProt P08887)
T1 construct: host or cells: patients (endogenous receptor)
T1 sequence (P08887 20-468): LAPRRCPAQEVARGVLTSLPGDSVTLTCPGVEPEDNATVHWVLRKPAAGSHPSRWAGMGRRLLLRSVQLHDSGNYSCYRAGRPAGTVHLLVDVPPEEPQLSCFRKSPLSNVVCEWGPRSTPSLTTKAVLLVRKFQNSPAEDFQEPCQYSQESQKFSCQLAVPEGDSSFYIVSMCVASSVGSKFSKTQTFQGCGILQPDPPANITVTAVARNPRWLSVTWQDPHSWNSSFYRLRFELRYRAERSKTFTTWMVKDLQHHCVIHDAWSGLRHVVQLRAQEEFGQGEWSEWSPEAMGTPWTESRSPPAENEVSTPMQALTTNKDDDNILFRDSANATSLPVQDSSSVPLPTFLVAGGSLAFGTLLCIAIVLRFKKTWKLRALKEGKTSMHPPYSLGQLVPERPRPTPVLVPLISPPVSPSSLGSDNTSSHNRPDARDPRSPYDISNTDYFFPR

B1: sarilumab (antibody, chains of the INN, looked up, V domains shown)
VH: EVQLVESGGGLVQPGRSLRLSCAASRFTFDDYAMHWVRQAPGKGLEWVSGISWNSGRIGYADSVKGRFTISRDNAENSLFLQMNGLRAEDTALYYCAKGRDSFDIWGQGTMVTVSS
VL: DIQMTQSPSSVSASVGDRVTITCRASQGISSWLAWYQQKPGKAPKLLIYGASSLESGVPSRFSGSGSGTDFTLTISSLQPEDFASYYCQQANSFPYTFGQGTKLEIK

Experiments:
interleukin-6 receptor = target: T1, interleukin-6 receptor; details: tocilizumab or sarilumab, intensive care units; cited from earlier work
hepatitis B virus = details: in vitro; cited from earlier work

Row | Molecule | survival in severe patients (interleukin-6 receptor) | inhibition of hepatitis B virus (hepatitis B virus)
1 | tocilizumab [reference compound] | increased | –
2 | CC(=O)O[C@H]([C@@H]1C[C@@H](C)C2=C3C=C[C@H]4[C@@]5(C)CCC(=O)C(C)(C)[C@@H]5CC[C@]4(C)[C@@]3(C)C[C@@H]2O1)C(C)(C)O [Alisol O] | – | could inhibit
3 | B1 | increased | –
